The source of these data is patent US9708413B2, “Glycosylated linker, compound containing glycosylated linker moiety and physiologically active substance moiety or salt thereof, and methods for producing said compound or salt thereof” (Glytech, Inc., priority 2012, dated 2017).

Where “and” joins values, the source holds several entries; their conditions need not be identical. Identical values can stand only once. Like-named read-outs stand apart in the source and are kept apart here. Where only a bound is given, the exact number is not on record here.

One series in a line: physchem. The procedure:
To each microtube, 30 μL of a 0.1% aqueous TFA solution was added. These microtubes were shaken at 25° C. for 15 minutes and then centrifuged at 16100×g at 25° C. for 10 minutes. Subsequently, the absorbance of the supernatant at 280 nm was measured in each of these microtubes.
Then, three of these tubes were used in amino acid composition analysis to determine sample contents. […] This absorbance at 280 nm was divided by the concentration determined in the amino acid composition analysis to determine the molar absorption coefficient.
The molar absorption coefficient εM of the HER28-16 peptide (SEQ ID NO: 15) at 280 nm was calculated according to the following expression (C. N. Pace et al., Prot. Sci., 1995, 4, pp. 2411-2423): εM=Trp×5500+Tyr×1490+Cystine×125[A280/mol/cm]
wherein Trp represents the number of tryptophan residues, Tyr represents the number of tyrosine residues, and Cystine represents the number of disulfide bonds.

Series [1] can be described thus: Autocatalytic cleavage of the glycosylated linker moiety in aqueous solution, traced by HPLC (elimination half-life). The procedure: To each sampled solution, a 0.5% aqueous TFA solution (28 μL) was added, and this solution was then frozen. The obtained solution was dissolved immediately before HPLC analysis, and a 50 μL aliquot thereof was injected and analyzed by HPLC [column: SHISEIDO CAPCELL PAK C18 UG-120 (5 μm), φ4.6×250 mm, flow rate: 0.7 mL/min, eluent A: 0.1% TFA in water, eluent B: 0.09% TFA/10% water/90% acetonitrile, gradient A:B=77:23→50:50 (20 min) linear concentration gradient elution]. The compound was detected using a diode array detector with a detection wavelength set to 220 nm.

The mark [2] stands for this setting: PBS solution, pH 7.4, Elimination half-life, PBS (pH 7.4), 25° C.
Setting [3] is: PBS solution, pH 7.4, Elimination half-life, PBS (pH 7.4), 37° C.
[4] abbreviates: acetate buffer solution, pH 4, Elimination half-life, Acetate buffer solution (pH 4.0), 25° C.
Where [5] appears, read: acetate buffer solution, pH 4, Elimination half-life, Acetate buffer solution (pH 4.0), 37° C.

One may read the thermodynamic solubility as the concentration in solution at equilibrium with solid. In general, half-life refers to how long it takes for the measured level to halve. A higher half-life goes with slow loss. A word on the solubility: it is the dissolved amount per volume that the medium holds. Usually Solubility stands for how much of the substance goes into solution per volume. Read a high Solubility as a readily soluble substance.

Regarding `CC(C)C[C@H](NC(=O)[C@H](CC(C)C)NC(=O)[C@H](C)NC(=O)[C@H](CC(C)C)NC(=O)[C@H](CC(C)C)NC(=O)[C@H](CC(C)C)NC(=O)CNC(=O)[C@H](Cc1c[nH]c2ccccc12)NC(=O)[C@@H](N)CCCNC(=N)N)C(=O)O` [HER28-16, reference compound], in the series “physchem”, the solubility (thermodynamic) at 15 min was 210 µg/mL and 200 µM.

Regarding `CC(=O)N[C@@H]1[C@@H](O)[C@H](O[C@@H]2O[C@H](CO)[C@@H](O[C@@H]3O[C@H](CO[C@H]4O[C@H](CO)[C@@H](O)[C@H](O)[C@@H]4O[C@@H]4O[C@H](CO)[C@@H](O[C@@H]5O[C@H](CO)[C@H](O)[C@H](O)[C@H]5O)[C@H](O)[C@H]4NC(C)=O)[C@@H](O)[C@H](O[C@H]4O[C@H](CO)[C@@H](O)[C@H](O)[C@@H]4O[C@@H]4O[C@H](CO)[C@@H](O[C@@H]5O[C@H](CO)[C@H](O)[C@H](O)[C@H]5O)[C@H](O)[C@H]4NC(C)=O)[C@@H]3O)[C@H](O)[C@H]2NC(C)=O)[C@@H](CO)O[C@H]1NC(=O)CC(N)C(=O)N1CCN(CCNC(=O)c2ccccc2C(=O)N[C@@H](Cc2ccc(O)cc2)C(=O)N[C@@H](Cc2ccccc2)C(=O)N2CCC[C@H]2C(=O)NCC(=O)N[C@@H](CCC(N)=O)C(=O)N[C@@H](Cc2ccccc2)C(=O)N[C@@H](C)C(=O)N[C@@H](Cc2ccccc2)C(=O)N[C@@H](CO)C(=O)O)CC1` (stereo partly shown) [compound 1, glycosylated (Asn (asialo)-type) linker-chemerin 9 conjugate], the half-life in series [1] (PBS solution, pH 7.4, Elimination half-life, PBS (pH 7.4), 4° C.) was 43.1 h; in series [1] (setting [2]), 4.3 h; in series [1] (setting [3]) it was 1.2 h; in series [1] (acetate buffer solution, pH 4, Elimination half-life, Acetate buffer solution (pH 4.0), 4° C.) it was 250 h; in series [1] (setting [4]), 16 h; in series [1] (setting [5]), 4.4 h. Further, the half-life in series [1] (water, Elimination half-life (Reference), in water, 4° C.) came out at 221 h.

Take `CC(=O)N[C@@H]1[C@@H](O)[C@H](O)[C@@H](CO)O[C@H]1NC(=O)CSC[C@H](N)C(=O)N1CCN(CCNC(=O)c2ccccc2C(=O)N[C@@H](Cc2ccc(O)cc2)C(=O)N[C@@H](Cc2ccccc2)C(=O)N2CCC[C@H]2C(=O)NCC(=O)N[C@@H](CCC(N)=O)C(=O)N[C@@H](Cc2ccccc2)C(=O)N[C@@H](C)C(=O)N[C@@H](Cc2ccccc2)C(=O)N[C@@H](CO)C(=O)O)CC1` [compound 4, glycosylated (Cys (GlcNAc)-type) linker-chemerin 9 conjugate]: the half-life in series [1] (setting [3]) was 1.4 h; in series [1] (setting [5]) it was 4.3 h.

Turning to `CC(=O)N[C@@H]1[C@@H](O)[C@H](O[C@@H]2O[C@H](CO)[C@@H](O[C@@H]3O[C@H](CO[C@H]4O[C@H](CO)[C@@H](O)[C@H](O)[C@@H]4O[C@@H]4O[C@H](CO)[C@@H](O[C@@H]5O[C@H](CO)[C@H](O)[C@H](O)[C@H]5O)[C@H](O)[C@H]4NC(C)=O)[C@@H](O)[C@H](O[C@H]4O[C@H](CO)[C@@H](O)[C@H](O)[C@@H]4O[C@@H]4O[C@H](CO)[C@@H](O[C@@H]5O[C@H](CO)[C@H](O)[C@H](O)[C@H]5O)[C@H](O)[C@H]4NC(C)=O)[C@@H]3O)[C@H](O)[C@H]2NC(C)=O)[C@@H](CO)O[C@H]1NC(=O)CSCC(N)C(=O)N1CCN(CCNC(=O)c2ccccc2C(=O)N[C@@H](Cc2ccc(O)cc2)C(=O)N[C@@H](Cc2ccccc2)C(=O)N2CCC[C@H]2C(=O)NCC(=O)N[C@@H](CCC(N)=O)C(=O)N[C@@H](Cc2ccccc2)C(=O)N[C@@H](C)C(=O)N[C@@H](Cc2ccccc2)C(=O)N[C@@H](CO)C(=O)O)CC1` (stereo partly shown) [compound 5, glycosylated (Cys (asialo)-type) linker-chemerin 9 conjugate], the half-life in series [1] (setting [3]) was 1.3 h; in series [1] (setting [5]), 4.5 h.

As for `CC(=O)N[C@@H]1[C@@H](O)[C@H](O[C@@H]2O[C@H](CO)[C@@H](O[C@@H]3O[C@H](CO[C@H]4O[C@H](CO)[C@@H](O)[C@H](O)[C@@H]4O[C@@H]4O[C@H](CO)[C@@H](O[C@@H]5O[C@H](CO)[C@H](O)[C@H](O)[C@H]5O)[C@H](O)[C@H]4NC(C)=O)[C@@H](O)[C@H](O[C@H]4O[C@H](CO)[C@@H](O)[C@H](O)[C@@H]4O[C@@H]4O[C@H](CO)[C@@H](O[C@@H]5O[C@H](CO)[C@H](O)[C@H](O)[C@H]5O)[C@H](O)[C@H]4NC(C)=O)[C@@H]3O)[C@H](O)[C@H]2NC(C)=O)[C@@H](CO)O[C@H]1NC(=O)CC(NC(=O)OCC1c2ccccc2-c2ccccc21)C(=O)N1CCN(CCNC(=O)c2ccccc2C(=O)N[C@@H](Cc2ccc(O)cc2)C(=O)N[C@@H](Cc2ccccc2)C(=O)N2CCC[C@H]2C(=O)NCC(=O)N[C@@H](CCC(N)=O)C(=O)N[C@@H](Cc2ccccc2)C(=O)N[C@@H](C)C(=O)N[C@@H](Cc2ccccc2)C(=O)N[C@@H](CO)C(=O)O)CC1` (stereo partly shown) [compound 7, glycosylated (Fmoc-Asn (asialo)-type) linker-chemerin 9 conjugate], the half-life is 2.6 h in series [1] (setting [3]) and 12.2 h in series [1] (setting [5]).

Take `CC(=O)N[C@@H]1[C@@H](O)[C@H](O[C@@H]2O[C@H](CO)[C@@H](O[C@@H]3O[C@H](CO[C@H]4O[C@H](CO)[C@@H](O)[C@H](O)[C@@H]4O[C@@H]4O[C@H](CO)[C@@H](O[C@@H]5O[C@H](CO)[C@H](O)[C@H](O)[C@H]5O)[C@H](O)[C@H]4NC(C)=O)[C@@H](O)[C@H](O[C@H]4O[C@H](CO)[C@@H](O)[C@H](O)[C@@H]4O[C@@H]4O[C@H](CO)[C@@H](O[C@@H]5O[C@H](CO)[C@H](O)[C@H](O)[C@H]5O)[C@H](O)[C@H]4NC(C)=O)[C@@H]3O)[C@H](O)[C@H]2NC(C)=O)[C@@H](CO)O[C@H]1NC(=O)CC(N)C(=O)N1CCN(CCNC(=O)c2c(Cl)c(Cl)c(Cl)c(Cl)c2C(=O)N[C@@H](Cc2ccc(O)cc2)C(=O)N[C@@H](Cc2ccccc2)C(=O)N2CCC[C@H]2C(=O)NCC(=O)N[C@@H](CCC(N)=O)C(=O)N[C@@H](Cc2ccccc2)C(=O)N[C@@H](C)C(=O)N[C@@H](Cc2ccccc2)C(=O)N[C@@H](CO)C(=O)O)CC1` (stereo partly shown) [compound 10, glycosylated (Asn (asialo)-tetrachlorophthaloyl-type) linker-chemerin 9 conjugate]: the half-life in series [1] (setting [2]) was 1.1 h; in series [1] (setting [3]), 0.255 h; in series [1] (setting [4]), 4.5 h; in series [1] (setting [5]), 1.3 h.

For `CC(=O)N[C@@H]1[C@@H](O)[C@H](O[C@@H]2O[C@H](CO)[C@@H](O[C@@H]3O[C@H](CO[C@H]4O[C@H](CO)[C@@H](O)[C@H](O)[C@@H]4O[C@@H]4O[C@H](CO)[C@@H](O[C@@H]5O[C@H](CO)[C@H](O)[C@H](O)[C@H]5O)[C@H](O)[C@H]4NC(C)=O)[C@@H](O)[C@H](O[C@H]4O[C@H](CO)[C@@H](O)[C@H](O)[C@@H]4O[C@@H]4O[C@H](CO)[C@@H](O[C@@H]5O[C@H](CO)[C@H](O)[C@H](O)[C@H]5O)[C@H](O)[C@H]4NC(C)=O)[C@@H]3O)[C@H](O)[C@H]2NC(C)=O)[C@@H](CO)O[C@H]1NC(=O)CC(N)C(=O)N1CCN(CCNC(=O)c2ccccc2C(=O)N[C@@H](CCCNC(=N)N)C(=O)N[C@@H](Cc2c[nH]c3ccccc23)C(=O)NCC(=O)N[C@@H](CC(C)C)C(=O)N[C@@H](CC(C)C)C(=O)N[C@@H](CC(C)C)C(=O)N[C@@H](C)C(=O)N[C@@H](CC(C)C)C(=O)N[C@@H](CC(C)C)C(=O)O)CC1` (stereo partly shown) [compound 11, glycosylated (Asn (asialo)-type) linker-HER28-16 conjugate], the half-life was 8.3 h in series [1] (setting [2]), 2.6 h in series [1] (setting [3]), 21.4 h in series [1] (setting [4]) and 6.2 h in series [1] (setting [5]). Also, the solubility at 15 minutes in “physchem” is more than 38 mM; in “physchem” (Solubility (molar concentration), 0.1% aqueous TFA solution, 25° C.) it was not below 38 mM. Also, the Solubility in “physchem” (0.1% aqueous TFA solution, 25° C., listed as Glycosylated linker-HER28-16 conjugate (compound 11)) was more than 116 mg/mL.
